The target of this data set is T1, beta secretase (Homo sapiens, UniProt P56817).
T1 construct: made in house; host or cells: CHO-K1 cells (secreted, glycosylated)
Description: beta secretase enzymatic activity assayed by HPLC analysis of the products. The class given is biochemical. The settings on record: CHO cell derived human beta secretase cleaved at F39-V40 by HIV-1 protease and purified, compared with non-treated beta secretase. As for the experimental part:
Purified HIV-1 protease treated (and non-treated) beta secretase were assayed for activity by HPLC analysis of the products.

B1: HIV-1 protease treated beta secretase: CHO cell expressed recombinant human beta secretase proteolytically cleaved with HIV protease (N-terminus V40), used for crystallization (protein)
chain: VEMVDNLRGKSGQGYYVEMTVGSPPQTLNILVDTGSSNFAVGAAPHPFLHRYYQRQLSSTYRDLRKGVYVPYTQGKWEGELGTDLVSIPHGPNVTVRANIAAITESDKFFINGSNWEGILGLAYAEIARPDDSLEPFFDSLVKQTHVPNLFSLQLCGAGFPLNQSEVLASVGGSMIIGGIDHSLYTGSLWYTPIRREWYYEVIIVRVEINGQDLKMDCKEYNYDKSIVDSGTTNLRLPKKVFEAAVKSIKAASSTEKFPDGFWLGEQLVCWQAGTTPWNIFPVISLYLMGEVTNQSFRITILPQQYLRPVEDVATSQDDCYKFAISQSSTGTVMGAVIMEGFYVVFDRARKRIGFAVSACHVHDEFRTAAVEGPFVTLDMEDCGYNIPQTDESHHHHHH
Take B1: the “more enzymatic activity than non-treated (unprocessed) beta secretase” value is given as 10-20%.

The values are drawn from patent US7384773B1, “Crystal of HIV protease-cleaved human beta secretase and method for crystallization thereof” (Pfizer Inc, priority 2001, dated 2008).
